Legend:
[1] = biological target: T1, Fusion protein of extracellular domain of human TIGIT and His-tag (human TIGIT ECD-his) (human); test: BIAcore
T1 chain: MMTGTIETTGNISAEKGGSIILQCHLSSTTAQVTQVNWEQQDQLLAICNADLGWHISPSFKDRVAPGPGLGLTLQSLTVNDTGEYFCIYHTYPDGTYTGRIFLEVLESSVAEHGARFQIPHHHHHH

[2] = biological target: T2, Fusion protein of extracellular domain of human TIGIT and mouse IgG2a Fc fragment (human TIGIT ECD-mFc) (human); test: ELISA, human TIGIT ECD-mFc
T2 construct: The entry includes the signal peptide (limits not recoverable) and the mouse IgG2a Fc
T2 chain: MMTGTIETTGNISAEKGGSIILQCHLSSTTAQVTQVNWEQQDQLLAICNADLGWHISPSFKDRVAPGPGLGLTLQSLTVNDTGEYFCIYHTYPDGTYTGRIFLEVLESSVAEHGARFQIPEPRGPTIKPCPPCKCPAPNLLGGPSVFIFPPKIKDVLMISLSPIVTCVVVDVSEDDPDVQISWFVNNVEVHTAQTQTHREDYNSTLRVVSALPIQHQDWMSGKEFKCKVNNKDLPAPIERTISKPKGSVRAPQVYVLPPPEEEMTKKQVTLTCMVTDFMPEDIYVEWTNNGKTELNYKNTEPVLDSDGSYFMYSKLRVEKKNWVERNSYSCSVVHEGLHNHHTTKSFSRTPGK
Outline: (§1)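 Plates blocked with 5% skim milk-PBS at 37° C for 2-4 h. Test antibodies applied as a 12-point 3-fold series from 13 nM for 1.5-2 h at 37° C. Read-out: HRP secondary (1:5000, 1 h, 37° C), TMB colour for 7-10 min at room temperature, acid stop, absorbance at OD450 nm.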

[3] = biological target: T3, Fusion protein of extracellular domain of cynomolgus monkey TIGIT and mouse IgG2a Fc fragment (cynomolgus … (cynomolgus monkey)); test: ELISA, cynomolgus monkey TIGIT ECD-mFc
T3 construct: The entry includes the signal peptide (limits not recoverable) and the mouse IgG2a Fc
Outline: as §1

[4] = biological target: T4, Full-length cynomolgus monkey TIGIT on CHO-K1 cells (CHO-K1 cynomolgus monkey TIGIT) (cynomolgus monkey); test: cell binding, CHO-K1 cynomolgus monkey TIGIT
T4 construct: NCBI XP_015300911.1
Outline: (§2)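 Binding was measured by flow cytometry after a 60-minute, 4° C incubation of the antibodies with 2×10⁵ CHO-K1 cells displaying full-length human or cynomolgus monkey TIGIT. Antibody titration: 12 points, threefold serial dilution from 80 nM, in 1% BSA-PBS.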

[5] = biological target: T5, Fusion protein of extracellular domain of human TIGIT and human IgG1 Fc fragment (human TIGIT ECD-hFc) (human); test: blocking of TIGIT ECD-hFc binding to CHO-K1 CD155 cells
T5 construct: The entry includes the signal peptide (limits not recoverable) and the human IgG1 Fc
Outline: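 The inhibition curves from which IC50 was calculated were generated by cell-based ELISA. Fixed CHO-K1 CD155 cells, blocked with 5% skim milk-PBS, were incubated at 37° C for 1.5-2 h with antibodies that had been premixed for 0.5 h with human TIGIT ECD-hFc at a working concentration of 30 ng/mL. Detection of bound TIGIT used HRP secondary antibody at 1:5000 for 1 h at 37° C, followed by TMB and reading as OD450 nm.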

[6] = biological target: T6, Full-length human TIGIT on CHO-K1 cells (CHO-K1 human TIGIT) (human, UniProt Q495A1 22-244); test: cell binding, CHO-K1 human TIGIT high expression strain
T6 construct: NCBI XP_024309156.1; the entry includes the signal peptide (limits not recoverable); The strain (high, medium, low) is named under assay; also called high expression strain 1D2; medium expression strain 2D10
T6 sequence: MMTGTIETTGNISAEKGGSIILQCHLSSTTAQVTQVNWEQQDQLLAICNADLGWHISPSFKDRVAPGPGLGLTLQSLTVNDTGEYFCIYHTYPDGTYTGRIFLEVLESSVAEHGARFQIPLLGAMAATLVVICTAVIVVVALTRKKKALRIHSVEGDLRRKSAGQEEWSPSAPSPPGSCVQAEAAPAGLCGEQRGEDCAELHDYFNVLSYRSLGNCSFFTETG
Outline: as §2

[7] = biological target: T1, Fusion protein of extracellular domain …; test: BIAcore; KD ratio, by the numbers to TIGIT-005-H2L1 of r33
[8] = biological target: T1, Fusion protein of extracellular domain …; test: BIAcore; reference itself

T4 sequence (chain, as listed by the source limits assumed): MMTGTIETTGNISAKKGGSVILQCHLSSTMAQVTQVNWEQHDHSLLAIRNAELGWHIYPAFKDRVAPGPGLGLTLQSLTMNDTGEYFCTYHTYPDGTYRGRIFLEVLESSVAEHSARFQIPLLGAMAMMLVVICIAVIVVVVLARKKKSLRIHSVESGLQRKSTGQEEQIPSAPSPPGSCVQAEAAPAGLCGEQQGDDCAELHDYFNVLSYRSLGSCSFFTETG
T5 sequence (chain, as listed by the source limits assumed): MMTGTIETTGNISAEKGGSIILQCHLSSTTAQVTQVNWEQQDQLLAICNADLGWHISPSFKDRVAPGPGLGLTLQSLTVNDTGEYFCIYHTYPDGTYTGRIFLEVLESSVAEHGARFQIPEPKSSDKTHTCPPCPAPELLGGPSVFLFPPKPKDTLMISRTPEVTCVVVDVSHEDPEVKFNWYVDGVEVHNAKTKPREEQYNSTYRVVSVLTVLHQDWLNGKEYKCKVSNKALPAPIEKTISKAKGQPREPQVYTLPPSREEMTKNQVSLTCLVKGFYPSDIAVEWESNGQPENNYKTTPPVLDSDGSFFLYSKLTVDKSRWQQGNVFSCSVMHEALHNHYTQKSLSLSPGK
T3 sequence (chain, as listed by the source limits assumed): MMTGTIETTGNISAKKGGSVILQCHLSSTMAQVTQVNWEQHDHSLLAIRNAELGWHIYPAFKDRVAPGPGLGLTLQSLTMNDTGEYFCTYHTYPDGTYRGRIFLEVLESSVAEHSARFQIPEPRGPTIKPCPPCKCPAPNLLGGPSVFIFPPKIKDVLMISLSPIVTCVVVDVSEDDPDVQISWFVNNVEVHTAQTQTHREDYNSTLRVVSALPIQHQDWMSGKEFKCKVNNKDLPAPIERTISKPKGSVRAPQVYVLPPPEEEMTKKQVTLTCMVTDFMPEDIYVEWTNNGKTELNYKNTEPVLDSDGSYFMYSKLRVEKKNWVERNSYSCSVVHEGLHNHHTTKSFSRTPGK

| Binder | Kd [1] | koff [1] | kon [1] | EC50 [2] | EC50 [3] | EC50 [4] | IC50 [5] | EC50 [6] | Fold change vs chimeric antibodies (KD) [7] | Fold change vs chimeric antibodies (KD) [8] |
| --- | --- | --- | --- | --- | --- | --- | --- | --- | --- | --- |
| TIGIT-005-H2L1a (antibody, V domains shown, Humanized anti-TIGIT antibody with NG-site mutation in VL) VH: EVQLVQSGAEVKKPGASVKVSCKASGYAFTNYLIEWVRQAPGQRLEWMGVINPGSGGTNYKEKFKGRVTITADKSSSTAYMELSSLRSEDTAVYYCARGEYFFFDYWGQGTTVTVSS VL: DIVMTQSPDSLAVSLGERATINCKASQHVSQGVAWYQHKPGQSPKLLIYSASYRYTGVPDRFSGSGSGTDFTLTISSLQAEDVAVYYCQQHYNTPHTFGGGTKVEIK | 3.71 nM | 0.0105 s⁻¹ | 2.83e+06 M⁻¹ s⁻¹ | 0.0289 nM | 0.0357 nM | 0.0561 nM | 0.717 nM | 0.0129 nM | 50 fold |  |
| TIGIT-005-H2L1b (antibody, V domains shown, Humanized anti-TIGIT antibody with NG-site mutation in VL) VH: EVQLVQSGAEVKKPGASVKVSCKASGYAFTNYLIEWVRQAPGQRLEWMGVINPGSGGTNYKEKFKGRVTITADKSSSTAYMELSSLRSEDTAVYYCARGEYFFFDYWGQGTTVTVSS VL: DIVMTQSPDSLAVSLGERATINCKASQHVSTGVAWYQHKPGQSPKLLIYSASYRYTGVPDRFSGSGSGTDFTLTISSLQAEDVAVYYCQQHYNTPHTFGGGTKVEIK | 0.734 nM | 0.00248 s⁻¹ | 3.38e+06 M⁻¹ s⁻¹ | 0.0238 nM | 0.032 nM | 0.0368 nM | 0.358 nM | 0.0279 nM | 9.89 fold |  |
| TIGIT-005-H2L1c (antibody, V domains shown, Humanized anti-TIGIT antibody with NG-site mutation in VL) VH: EVQLVQSGAEVKKPGASVKVSCKASGYAFTNYLIEWVRQAPGQRLEWMGVINPGSGGTNYKEKFKGRVTITADKSSSTAYMELSSLRSEDTAVYYCARGEYFFFDYWGQGTTVTVSS VL: DIVMTQSPDSLAVSLGERATINCKASQHVSDGVAWYQHKPGQSPKLLIYSASYRYTGVPDRFSGSGSGTDFTLTISSLQAEDVAVYYCQQHYNTPHTFGGGTKVEIK | 0.184 nM | 0.000459 s⁻¹ | 2.49e+06 M⁻¹ s⁻¹ | 0.0268 nM | 0.0296 nM | 0.0673 nM | 0.347 nM | 0.0246 nM | 2.48 fold |  |
| TIGIT-CHI-070 (antibody, V domains shown, Human-mouse chimeric antibody) VH: QVQLQQPGTELVKPGASVKLSCRASGYTFTNYYMHWVKQRPGRGLEWIGRIDPDSGGSKYNEKFKSKATLTVDKLSSTAYMQLSSLTSEDSAVYYCAREGHYGFYSDYWGQGTTLTVSS VL: DIQMTQSPASLSASVGETVTITCRVSENIYSYLAWYQQKQGKSPQLLVYNAKTLAEGVPSRFSGSGSGTQFSLKINSLQPEDFGNYYCQHHYGNPLTFGAGTKLDLK | 0.098 nM | 0.000145 s⁻¹ | 1.48e+06 M⁻¹ s⁻¹ | 0.0159 nM | 0.0184 nM | 0.0741 nM | 0.637 nM | 0.033 nM |  | 1 fold |

These reach a lower Kd [1]. Values come first.

| Kd [1] | koff [1] | kon [1] | EC50 [2] | EC50 [3] | EC50 [4] | IC50 [5] | EC50 [6] | Fold change vs chimeric antibodies (KD) [7] | Fold change vs chimeric antibodies (KD) [8] | Binder |
| --- | --- | --- | --- | --- | --- | --- | --- | --- | --- | --- |
| 0.0276 nM | 0.000113 s⁻¹ | 4.76e+06 M⁻¹ s⁻¹ | 0.019 nM | 0.0165 nM | 0.0265 nM | 0.36 nM | 0.026 nM |  | 1 fold | TIGIT-CHI-005 (antibody, V domains shown, Human-mouse chimeric antibody) VH: QVQLQQSGAELVRPGTSVKVSCKASGYAFTNYLIEWVKQRPGQGLEWIGVINPGSGGTNYKEKFKGKATLTADKSSSTAYMQLSSLTSEDSAVYFCARGEYFFFDYWGQGTTLTVSS VL: DIVMTQSHKFMSTSVGDRVSITCKASQHVSNGVAWYQHKPGQSPKLLIYSASYRYTGVPDRFTGTGSGTDFTFTISSVQAEDLAVYYCQQHYNTPHTFGGGTKLEIK |
| 0.0774 nM | 0.000162 s⁻¹ | 2.09e+06 M⁻¹ s⁻¹ | 0.0152 nM | 0.0258 nM | 0.15 nM | 0.579 nM | 0.0299 nM |  | 1 fold | TIGIT-CHI-006 (antibody, V domains shown, Human-mouse chimeric antibody) VH: EVQLQESGPGLAKPSQTPSLTCSVTGYSMTSDYWNWIRKFPGNKLEYMGYISYSGRTYYNPSLKSRISITRDTSKNQFYLQLNSVTTEDTATYYCARGDYSNYGGAMYDWGQGTSVTVSS VL: DIVMTQSHKFMSTSVGDRVSITCRASQGVSTTIAWYQQKPGQSPKLLIYSASYRYTGVPDRFTGSGSGTDFTFTISGVQAEDLAVYYCQQYYSSPFTFGGGTKLEIK |

Source: patent publication US20240343803A1 (SHANDONG SIMCERE BIOPHARMACEUTICAL, published 2024)
